Laboratory results as given in US9580460B2, “Discordant helix stabilization for prevention of amyloid formation” (AlphaBeta AB, priority 2000, dated 2017).

Assays:
[1] = conditions where Aβ(1-42) readily forms fibrils; Tjernberg et al. 1996, 1999; cited from earlier work
Aβ(14-23) = target: T1, Aβ(14-23) (Homo sapiens, UniProt P05067); experiment: Fibril formation by Aβ(14-23) with tripeptide or tetrapeptide ligand, electron microscopy; type: biochemical; conditions: for density of Aβ(14-23) fibrils (fibril formation): 100 μM Aβ(14-23), 1 mM ligand peptide, three days at 37° C., PBS pH 7.4, electron microscopy, semi quantitative; for reduction of Aβ fibrillation or aggregation: summary statement, Aβ peptide not specified (FIG. 7: Aβ(14-23))
T1 construct: 12-24. and 14-23 were purchased from Research Genetics; purchased Research Genetics, Huntsville, Ala., USA; host or cells: chemical synthesis
Procedure: (§1) Synthetic peptides corresponding to human Aβ fragments 1-40 (amino acid sequence […]; SEQ ID NO:3), 12-24. and 14-23 were purchased from Research Genetics, Huntsville, Ala., USA. Aβ(1-40) was purified by reverse-phase HPLC over a C18 column, using a linear gradient of acetonitrile running into 0.1% trifluoroacetic acid for elution. The purified peptide was lyophilized, stored at −20° C. and dissolved shortly before experiments. The tripeptides and tetrapeptides were synthesized and purified by reverse-phase HPLC (>70% purity) by Interactiva, Darmstadt, Germany
(§2) The relative abundance and morphology of fibrils was determined by electron microscopy after incubating each of the three Aβ peptides (100 μM) for three days at 37° C. in phosphate buffered saline (50 mM sodium phosphate/150 mM NaCl, pH 7.4) in the presence of 1 mM of a specific tripeptide or tetrapeptide ligand. Aggregates were collected by centrifugation at 20,000×g for 20 minutes. The pellets were suspended in a small volume of water by low-energy sonication for 5 seconds. Aliquots of 8 μl were placed on electron microscopy grids covered by a carbon-stabilized formvar film. Excess fluid was withdrawn after 30 seconds, and after air-drying the grids were negatively stained with 2% uranyl acetate in water. The stained grids were examined and photographed in a Philips CM120TWIN electron microscope operated at 80 kV. For a semi quantitative evaluation of the amount of material in the different specimens, the grids (50 mesh) were first scanned at low magnification and the number of larger fibril bundles per grid square estimated. The specimens were subsequently examined at high magnification to judge the size of the fibril bundles, the presence of smaller fibril aggregates, and the morphology of the individual fibrils.

Aβ(12-24) = target: T2, Aβ(12-24) (Homo sapiens, UniProt P05067); experiment: Fibril formation by Aβ(12-24) with tripeptide ligand, electron microscopy; type: biochemical; conditions: 100 μM Aβ(12-24), 1 mM ligand peptide, three days at 37° C., PBS pH 7.4, electron microscopy, semi quantitative
T2 construct: 12-24. and 14-23 were purchased from Research Genetics; purchased Research Genetics, Huntsville, Ala., USA; host or cells: chemical synthesis
Procedure: as §1
as §2, with “Excess fluid was withdrawn after 30 seconds, and after air-drying the grids were negatively stained with 2% uranyl acetate in water. The stained grids were examined and photographed in a Philips CM120TWIN electron microscope operated at 80 kV.” left out, “The specimens were subsequently examined at high magnification to judge the size of the fibril bundles, the presence of smaller fibril aggregates, and the morphology of the individual fibrils.” left out

Aβ(1-40) [2] = target: T3, Aβ(1-40) (Homo sapiens, UniProt P05067); experiment: Fibril formation by Aβ(1-40) with tripeptide ligand, electron microscopy; type: biochemical; conditions: 100 μM Aβ(1-40), 1 mM ligand peptide, three days at 37° C., PBS pH 7.4, electron microscopy, semi quantitative
T3 construct: purchased Research Genetics, Huntsville, Ala., USA; host or cells: chemical synthesis
Procedure: as §1, §2

Aβ(1-40) [3] = target: T3, Aβ(1-40); experiment: Time-dependent aggregation of Aβ(1-40), amount left in solution after 20,000 xg centrifugation; type: biochemical; conditions: in the presence of the peptide; Aβ(1-40) left in solution after 20,000 xg centrifugation
From the text: The effects of the peptides KAD, AAA, and KFFE (SEQ ID NO:1) on the time-dependent aggregation of Aβ(1-40), determined as the amount of Aβ(1-40) left in solution after 20,000 xg centrifugation, were studied. In the presence of AAA, Aβ(1-40) completely aggregated in 10-15 days. In the presence of KAD, Aβ(1-40) completely aggregated in 30-40 days. In the presence of KFFE (SEQ ID NO:1), Aβ(1-40) completely aggregated in about 3 days (FIG. 8).

Aβ(1-40) [4] = target: T3, Aβ(1-40); experiment: Fibril morphology of Aβ(1-40) in the presence of peptides, electron microscopy; type: biochemical; conditions: in the presence of the peptide, compared with AAA or acetyl-AAA-amide
Procedure: as §2

[5] = Fibril formation of proteins with long discordant helices, electron microscopy of 20,000×g pellets; type: physicochemical; conditions: 10 μM to 100 μM in phosphate buffered saline pH 7.4, 37° C., three days
From the text: The proteins used in these experiments included SP-C (lung SP-C forms amyloid in pulmonary alveolar proteinosis) purified from porcine lungs (Curstedt et al, 1987, Eur. J. Biochem. 168:255-262). PolyVal→polyLeu substituted SP-C (SP-C(Leu)) analogue was synthesized as described by Nilsson et al. (1998, Eur. J. Biochem, 255:116-124) was used in the experiments as was D-analyl-D-alanine transpeptidase from Streptomyces R61 was obtained from Drs. Frére and Joris, University of Liege, Belgium (Frere et al, 1973, Biochem. J. 135:463-468). Triacylglycerol lipase from Candida antarctica and human coagulation factor XIII were purchased from Sigma. For these fibrillation studies the latter three proteins were dissolved in phosphate buffered saline, pH 7.4, in concentrations ranging from 10 μM to 100 μM. SP—C and SP-C (Leu) were dissolved at 100 μM or 250 μM in chloroform/methanol/0.1 M HCl, 32:64:5 (by volume).
To assay for the formation of fibrils, the protein solutions were incubated at 37° C. for three days, then centrifuged at 20,000×g for 20 minutes. The concentrations of SP-C and SP-C(Leu) in the supernatants were determined by amino acid analysis of triplicate samples. Peptide concentration at start of the incubations was 250 μM for SP-C(Leu) and 100 μM for SP-C. […]

T3 sequence (P05067 672-711): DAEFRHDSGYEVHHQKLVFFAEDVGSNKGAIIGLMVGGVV

Substance | density of Aβ(14-23) fibrils (fibril formation) (Aβ(14-23)) | density of Aβ(1-40) fibrils (fibril formation) (Aβ(1-40) [2]) | time until Aβ(1-40) completely aggregated (Aβ(1-40) [3]) | also measured
Aβ(1-28) with alanine substitutions at positions 16, 17, and 20: Aβ(1-28) variant K16A, L17A, F20A (DAEFRHDSGYEVHHQAAVFAAEDVGSNK; Amyloid-beta protein 42; UniProt P05067 672-699, looked up, variant K16A L17A F20A) | – | – | – | fibril formation of the Aβ analogue itself [1]: does not form fibrils
KAD | significant reduction of fibril density | significant reduction of fibril density | 30 to 40 days | density of Aβ(12-24) fibrils (fibril formation) (Aβ(12-24)): significant reduction of fibril density; morphology of Aβ(1-40) fibrillar structures (Aβ(1-40) [4]): much shorter and more dispersed
acetyl-AAA-amide | – | no significant effect | – | –
KFD [dipolar tripeptide, central Ala of KAD replaced with Phe] | reduced Aβ(14-23) fibril formation, but to a lesser extent than KAD | – | – | –
coagulation factor XIII: human coagulation factor XIII, purchased from Sigma | – | – | – | fibril formation of the protein itself [5]: form fibrils
KFFE (Synthetically generated peptide) [dipolar tetrapeptide KFFE] | slightly promote fibril formation | – | about 3 days | reduction of Aβ fibrillation or aggregation (Aβ(14-23)): did not reduce
acetyl-KAD-amide (Ac-Lys-Ala-Asp-NH2) | – | equally efficient in reducing Aβ(1-40) fibril formation as the KAD peptide with free termini | – | morphology of Aβ(1-40) fibrillar structures (Aβ(1-40) [4]): much shorter and more dispersed
unsubstituted Aβ(1-28): positions 1-28 of human Aβ | – | – | – | fibril formation of the Aβ analogue itself [1]: forms fibrils
KAAE (Synthetically generated peptide) [dipolar tetrapeptide KAAE] | – | – | – | reduction of Aβ fibrillation or aggregation (Aβ(14-23)): did not reduce
AAA | – | no significant effect | 10 to 15 days | –
